{
  "source": "paper PMC12362618",
  "about": "“Development of the First Small-Molecule Inhibitor Targeting Oncostatin M for Treatment of Breast Cancer” (Journal of Medicinal Chemistry, 2025)",
  "molecules": {"B1": {"name": "gp130: glycoprotein 130 receptor subunit (R&D Systems, cat. #671-GP) injected over immobilized OSM in SPR (protein)", "chain": "ELLDPCGYISPESPVVQLHSNFTAVCVLKEKCMDYFHVNANYIVWKTNHFTIPKEQYTIINRTASSVTFTDIASLNIQLTCNILTFGQLEQNVYGITIISGLPPEKPKNLSCIVNEGKKMRCEWDGGRETHLETNFTLKSEWATHKFADCKAKRDTPTSCTVDYSTVYFVNIEVWVEAENALGKVTSDHINFDPVYKVKPNPPHNLSVINSEELSSILKLTWTNPSIKSVIILKYNIQYRTKDASTWSQIPPEDTASTRSSFTVQDLKPFTEYVFRIRCMKEDGKGYWSDWSEEASGITYEDRPSKAPSFWYKIDPSHTQGYRTVQLVWKTLPPFEANGKILDYEVTLTRWKSHLQNYTVNATKLTVNLTNDRYLATLTVRNLVGKSDAAVLTIPACDFQATHPVMDLKAFPKDNMLWVEWTTPRESVKKYILEWCVLSDKAPCITDWQQEDGTVHRTYLRGNLAESKCYLITVTPVYADGPGSPESIKAYLKQAPPSKGPTVRTKKVGKNEAVLEWDQLPVDVQNGFIRNYTIFYRTIIGNETAVNVDSSHTEYTLSSLTSDTLYMVRMAAYTDEGGKDGPEFTFTTPKFAQGEIE"}},
  "target": "T1, immobilized OSM (Homo sapiens, UniProt P13725)",
  "T1 construct": "purchased R&D Systems 671-GP",
  "T1 sequence (P13725 26-212 limits assumed)": "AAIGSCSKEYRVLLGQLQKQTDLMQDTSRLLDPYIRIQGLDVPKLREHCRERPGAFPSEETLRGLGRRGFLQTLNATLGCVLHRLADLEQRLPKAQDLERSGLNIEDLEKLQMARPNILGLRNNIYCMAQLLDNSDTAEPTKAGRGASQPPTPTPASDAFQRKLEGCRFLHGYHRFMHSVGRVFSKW",
  "assay": "SPR binding kinetics of gp130 on immobilized OSM",
  "settings": "25 °C",
  "procedure": "SPR assays were used to investigate the ability of SMI-10B13 to disrupt the binding of the OSM receptor. We began our SPR assays by replicating the gp130-to-immobilized OSM binding kinetic experiment published by Chollangi et al. to evaluate the reliability of our setup. In this experiment, increasing concentrations of gp130 were injected, and the association and dissociation phases were monitored. […] However, the signal generated was insufficient for meaningful results, likely due to the suboptimal availability of accessible binding sites for […], although maximum feasible concentrations of both immobilized and injected gp130 were reached. As a result, we shifted our focus to assess whether SMI-10B13 could influence the recruitment of gp130 to OSM in a surface competition binding assay. […] While this effect could be justified by site II competitive binding at high SMI concentrations, the NMR CSP experiments are indicative of SMI binding at site III (Figure ). […]\nSPR experiments were performed on a Reichert SR7000 instrument that was fed by a Surveyor LC autosampler and pump. […] The real-time changes in refractive index units of the association and dissociation phases were monitored. […]",
  "data": [
    {"molecule": "B1", "values": [
      {"measurement": "Kd", "result": 20.5, "unit": "nM"}
    ]}
  ]
}
